Measurements as given in paper PMC6992768, “Loss-of-function mutations in UDP-Glucose 6-Dehydrogenase cause recessive developmental epileptic encephalopathy” (Nature Communications, 2020).
Where a chain is given by its changes, count along the chain named. Names and notes keep the numbering of the source.

Target: the molecule itself
Experiment: SEC; analytical gel filtration of each apoprotein alone; 1x PBS with 1 mM DTT, 0.5 mL/min, Superdex gel filtration column, elution followed by A280; peaks compared with known hexamer, dimer and monomer elution times

B1: UGDH A44V (enzyme, human, UniProt O60701 1-494, looked up)
chain: MFEIKKICCIGAGYVGGPTCSVIAHMCPEIRVTVVDVNESRINVWNSPTLPIYEPGLKEVVESCRGKNLFFSTNIDDAIKEADLVFISVNTPTKTYGMGKGRAADLKYIEACARRIVQNSNGYKIVTEKSTVPVRAAESIRRIFDANTKPNLNLQVLSNPEFLAEGTAIKDLKNPDRVLIGGDETPEGQRAVQALCAVYEHWVPREKILTTNTWSSELSKLAANAFLAQRISSINSISALCEATGADVEEVATAIGMDQRIGNKFLKASVGFGGSCFQKDVLNLVYLCEALNLPEVARYWQQVIDMNDYQRRRFASRIIDSLFNTVTDKKIAILGFAFKKDTGDTRESSSIYISKYLMDEGAHLHIYDPKVPREQIVVDLSHPGVSEDDQVSRLVTISKDPYEACDGAHAVVICTEWDMFKELDYERIHKKMLKPAFIFDGRRVLDGLHNELQTIGFQIETIGKKVSSKRIPYAPSGEIPKFSLQDPPNKKPKV
notes: human UDP-glucose 6-dehydrogenase (UGDH) with the patient variant A44V, made from WT-UGDH pET28a; Germline variant found in patients (families 1, 11, 13); Eluted mainly as a dimer by gel filtration; also called p.A44V; p.Ala44Val
stoichiometry N: 2

B2: UDP-Glucose 6-Dehydrogenase (UGDH), wild type (enzyme, human, UniProt O60701 1-494, looked up)
chain: B1 chain with V44A
notes: human UDP-glucose 6-dehydrogenase (UGDH), codon-optimised E. coli expression construct WT-UGDH pET28a; also called UGDH^WT; WT-UGDH
binding result: binds

B3: UGDH ∆132 (enzyme, human, UniProt O60701 1-494, looked up)
chain: MFEIKKICCIGAGYVGGPTCSVIAHMCPEIRVTVVDVNESRINAWNSPTLPIYEPGLKEVVESCRGKNLFFSTNIDDAIKEADLVFISVNTPTKTYGMGKGRAADLKYIEACARRIVQNSNGYKIVTEKSTPVRAAESIRRIFDANTKPNLNLQVLSNPEFLAEGTAIKDLKNPDRVLIGGDETPEGQRAVQALCAVYEHWVPREKILTTNTWSSELSKLAANAFLAQRISSINSISALCEATGADVEEVATAIGMDQRIGNKFLKASVGFGGSCFQKDVLNLVYLCEALNLPEVARYWQQVIDMNDYQRRRFASRIIDSLFNTVTDKKIAILGFAFKKDTGDTRESSSIYISKYLMDEGAHLHIYDPKVPREQIVVDLSHPGVSEDDQVSRLVTISKDPYEACDGAHAVVICTEWDMFKELDYERIHKKMLKPAFIFDGRRVLDGLHNELQTIGFQIETIGKKVSSKRIPYAPSGEIPKFSLQDPPNKKPKV
notes: source: purified recombinant; expression not described for this mutant
binding result: binds

B4: UGDH T325D (enzyme, human, UniProt O60701 1-494, looked up)
chain: B1 chain with V44A, T325D
notes: human UDP-glucose 6-dehydrogenase (UGDH) with T325D, made from WT-UGDH pET28a
binding result: binds
